Measured values from paper doi:10.1101/2021.08.26.457770 (bioRxiv, 2021).
Ends that are not written are not given here.

B1: eGFP-AANDENYALAA (peptide)
chain: eGFP-AANDENYALAA
modifications: not fully specified
B2: eGFP-AANDENYSENY (peptide)
chain: eGFP-AANDENYSENY
modifications: not fully specified
B3: eGFP-AANDENYADAS (peptide)
chain: eGFP-AANDENYADAS
modifications: not fully specified
B4: eGFP-AANDENYSENYADAS (peptide)
chain: eGFP-AANDENYSENYADAS
modifications: not fully specified

Molecular target: T1, SspB protein (ClpX adaptor) (Escherichia coli, UniProt P0AFZ3 1-165)
T1 sequence: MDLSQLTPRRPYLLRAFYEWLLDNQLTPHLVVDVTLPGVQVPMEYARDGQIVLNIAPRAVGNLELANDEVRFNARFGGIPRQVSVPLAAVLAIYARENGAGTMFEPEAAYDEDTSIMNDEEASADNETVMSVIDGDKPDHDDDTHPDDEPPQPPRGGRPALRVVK
Experiment: MST

Binder | Kd [nM]
B1 | 80
B2 | 100
B3 | 330
B4 | 300
